Measurements: patent publication US20230056252A1 (Gilead, published 2023)
Numbering of substitutions follows the chain as printed.

B1: huSP34.2.1 Fab-HF (Fab, V domains shown)
VH: EVQLVESGGGLVQPGGSLRLSCAASGFTFSTYAMNWVRQAPGKGLEWVGRIRSKYNNYATYYAASVKGRFTISRDDSKNSLYLQMNSLKTEDTAMYYCVRHGNFGNSYVSWFAVWGQGTLVTVSS
VL: QAVVTQEPSLTVSPGGTVTLTCRSSTGAVTTSNYANWVQQKPGQAPRGLIGGTNKRAPWTPARFSGSLIGDKAALTLSGAQPEDEAEYYCALWYSNLWVFGGGTKLTVL
notes: also called HC2+LC1
B2: huSP34.8.1 Fab-HF (Fab, V domains shown)
VH: B1 VH with T31D, I51T, M95V, N106H
VL: B1 VL
notes: also called HC8+LC1
B3: huSP34.9.1 Fab-HF (Fab, V domains shown)
VH: B1 VH with T31D, I51T, N57S, M95V
VL: B1 VL
notes: also called HC9+LC1
B4: huSP34.4.6 Fab-HF (Fab, V domains shown)
VH: B1 VH with K89R, M95V, N106H
VL: QAVVTQPPSLTVSPGGTVTLTCGSSTGAVTTGHYANWVQQKPGQAPRGLIGGTSNRAPGVPARFSGSLSGGKAALTISGAQPEDEAEYYCALWYSARWVFGGGTKLTVL
notes: also called HC4+LC6
B5: huSP34.5.4 Fab-HF (Fab, V domains shown)
VH: B1 VH with A64D, D76N, S80T, K89R, T90A, M95V, N106H
VL: B1 VL with R23G, N33H, N54S, I69L, D71G, N96A
notes: also called HC5+LC4
B6: huSP34.7.2 Fab-HF (Fab, V domains shown)
VH: B1 VH with T31D, I51T, M95V
VL: B1 VL with R23G, N54S, K55N, I69L, D71G
notes: also called HC7+LC2
B7: huSP34.3.1 Fab-HF (Fab, V domains shown)
VH: B1 VH with S30N, A64D, K89R, M95V, N106H, V114Y
VL: B1 VL
notes: also called HC3+LC1
B8: huSP34.5.2 Fab-HF (Fab, V domains shown)
VH: B1 VH with A64D, D76N, S80T, K89R, T90A, M95V, N106H
VL: B1 VL with R23G, N54S, K55N, I69L, D71G
notes: also called HC5+LC2
B9: huSP34.7.4 Fab-HF (Fab, V domains shown)
VH: B1 VH with T31D, I51T, M95V
VL: B1 VL with R23G, N33H, N54S, I69L, D71G, N96A
notes: also called HC7+LC4
B10: huSP34.4.2 Fab-HF (Fab, V domains shown)
VH: B1 VH with K89R, M95V, N106H
VL: B1 VL with R23G, N54S, K55N, I69L, D71G
notes: also called HC4+LC2
B11: huSP34.2.5 Fab-HF (Fab, V domains shown)
VH: B1 VH
VL: B4 VL with P7E, G59W, V60T, S69L, I77L
notes: also called HC2+LC5
B12: huSP34.6.5 Fab-HF (Fab, V domains shown)
VH: B1 VH with A64D, D76N, S80T, K89R, T90A
VL: B4 VL with P7E, G59W, V60T, S69L, I77L
notes: also called HC6+LC5
B13: huSP34.8.6 Fab-HF (Fab, V domains shown)
VH: B1 VH with T31D, I51T, M95V, N106H
VL: B4 VL
notes: also called HC8+LC6
B14: huSP34.3.2 Fab-HF (Fab, V domains shown)
VH: B1 VH with S30N, A64D, K89R, M95V, N106H, V114Y
VL: B1 VL with R23G, N54S, K55N, I69L, D71G
notes: also called HC3+LC2
B15: huSP34.4.5 Fab-HF (Fab, V domains shown)
VH: B1 VH with K89R, M95V, N106H
VL: B4 VL with P7E, G59W, V60T, S69L, I77L
notes: also called HC4+LC5
B16: huSP34.3.6 Fab-HF (Fab, V domains shown)
VH: B1 VH with S30N, A64D, K89R, M95V, N106H, V114Y
VL: B4 VL
notes: also called HC3+LC6
B17: huSP34.4.1 Fab-HF (Fab, V domains shown)
VH: B1 VH with K89R, M95V, N106H
VL: B1 VL
notes: also called HC4+LC1
B18: huSP34.6.4 Fab-HF (Fab, V domains shown)
VH: B1 VH with A64D, D76N, S80T, K89R, T90A
VL: B1 VL with R23G, N33H, N54S, I69L, D71G, N96A
notes: also called HC6+LC4
B19: huSP34.2.4 Fab-HF (Fab, V domains shown)
VH: B1 VH
VL: B1 VL with R23G, N33H, N54S, I69L, D71G, N96A
notes: also called HC2+LC4
B20: huSP34.9.4 Fab-HF (Fab, V domains shown)
VH: B1 VH with T31D, I51T, N57S, M95V
VL: B1 VL with R23G, N33H, N54S, I69L, D71G, N96A
notes: also called HC9+LC4
B21: huSP34.2.2 Fab-HF (Fab, V domains shown)
VH: B1 VH
VL: B1 VL with R23G, N54S, K55N, I69L, D71G
notes: also called HC2+LC2
B22: huSP34.3.4 Fab-HF (Fab, V domains shown)
VH: B1 VH with S30N, A64D, K89R, M95V, N106H, V114Y
VL: B1 VL with R23G, N33H, N54S, I69L, D71G, N96A
notes: also called HC3+LC4
B23: huSP34.7.5 Fab-HF (Fab, V domains shown)
VH: B1 VH with T31D, I51T, M95V
VL: B4 VL with P7E, G59W, V60T, S69L, I77L
notes: also called HC7+LC5
B24: huSP34.8.4 Fab-HF (Fab, V domains shown)
VH: B1 VH with T31D, I51T, M95V, N106H
VL: B1 VL with R23G, N33H, N54S, I69L, D71G, N96A
notes: also called HC8+LC4
B25: huSP34.5.5 Fab-HF (Fab, V domains shown)
VH: B1 VH with A64D, D76N, S80T, K89R, T90A, M95V, N106H
VL: B4 VL with P7E, G59W, V60T, S69L, I77L
notes: also called HC5+LC5
B26: huSP34.8.5 Fab-HF (Fab, V domains shown)
VH: B1 VH with T31D, I51T, M95V, N106H
VL: B4 VL with P7E, G59W, V60T, S69L, I77L
notes: also called HC8+LC5
B27: huSP34.9.2 Fab-HF (Fab, V domains shown)
VH: B1 VH with T31D, I51T, N57S, M95V
VL: B1 VL with R23G, N54S, K55N, I69L, D71G
notes: also called HC9+LC2
B28: huSP34.4.4 Fab-HF (Fab, V domains shown)
VH: B1 VH with K89R, M95V, N106H
VL: B1 VL with R23G, N33H, N54S, I69L, D71G, N96A
notes: also called HC4+LC4
B29: huSP34.2.6 Fab-HF (Fab, V domains shown)
VH: B1 VH
VL: B4 VL
notes: also called HC2+LC6
B30: huSP34.8.2 Fab-HF (Fab, V domains shown)
VH: B1 VH with T31D, I51T, M95V, N106H
VL: B1 VL with R23G, N54S, K55N, I69L, D71G
notes: also called HC8+LC2
B31: huSP34.6.2 Fab-HF (Fab, V domains shown)
VH: B1 VH with A64D, D76N, S80T, K89R, T90A
VL: B1 VL with R23G, N54S, K55N, I69L, D71G
notes: also called HC6+LC2
B32: huSP34.7.1 Fab-HF (Fab, V domains shown)
VH: B1 VH with T31D, I51T, M95V
VL: B1 VL
notes: also called HC7+LC1
B33: huSP34.5.1 Fab-HF (Fab, V domains shown)
VH: B1 VH with A64D, D76N, S80T, K89R, T90A, M95V, N106H
VL: B1 VL
notes: also called HC5+LC1
B34: huSP34.3.5 Fab-HF (Fab, V domains shown)
VH: B1 VH with S30N, A64D, K89R, M95V, N106H, V114Y
VL: B4 VL with P7E, G59W, V60T, S69L, I77L
notes: also called HC3+LC5
B35: huSP34.6.1 Fab-HF (Fab, V domains shown)
VH: B1 VH with A64D, D76N, S80T, K89R, T90A
VL: B1 VL
notes: also called HC6+LC1
B36: mSP34 Fab-HF (Fab, V domains shown)
VH: EVKLLESGGGLVQPKGSLKLSCAASGFTFNTYAMNWVRQAPGKGLEWVARIRSKYNNYATYYADSVKDRFTISRDDSQSILYLQMNNLKTEDTAMYYCVRHGNFGNSYVSWFAYWGQGTLVTVSA
VL: QAVVTQESALTTSPGETVTLTCRSSTGAVTTSNYANWVQEKPDHLFTGLIGGTNKRAPGVPARFSGSLIGDKAALTITGAQTEDEAIYFCALWYSNLWVFGGGTKLTVLG
notes: also called mSP34 chimeric Fab; mSP34 human chimeric Fab

Each binder was assayed against T1, biotinylated CD3 epsilon:delta heterodimer protein (Amsbio AMS.CDD-H52WO) (Homo sapiens (Human), UniProt P07766 23-126; P04234 22-105) (assay: BLI (Octet), CD3 on SA sensor, Fab analyte;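 further: biolayer interferometry with biotinylated CD3 epsilon:delta captured on streptavidin sensors, Fab analyte at several concentrations up to 300 nM, 100 s association then 300 s dissociation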).
T1 construct: also called CD3 heterodimer
Method: The CD3 binding kinetics of the purified huSP34 Fabs were determined using OctetRed384 (Pall ForteBio, CA) biolayer interferometry (BLI). […] Streptavidin (SA) coated biosensors tips (Pall ForteBio, CA) were used to capture biotinylated CD3 epsilon: delta heterodimer and typical immobilization levels captured on the SA sensors were 1 nm which approximately translates to 300 ng/ml of captured protein. For kinetic measurements biosensors were first pre-wetted with assay buffer for 10 minutes to remove protective sucrose coating followed by the recommended regeneration conditions for standardization of the biosensor surface for the experiment. In order to load the biosensors with antigen, 300 ng/ml of biotinylated CD3 epsilon: delta heterodimer protein (Amsbio AMS.CDD-H52WO) was immobilized on the SA sensor for 900 seconds. The CD3 loaded biosensors were then blocked with 20 ug/ml biocytin (sigma) for 200 seconds and then dipped into assay buffer containing wells for 200 seconds to remove any non-specific protein or unbound CD3 heterodimer.
CD3 loaded and biocytin blocked biosensors were then transferred into fresh assay buffer for 200 seconds to collect a baseline read. Kinetic measurements for anti-CD3 Fab and bispecific antibody binding were performed by dipping the CD3-coated biosensors into wells containing multiple concentrations of Fab or Ab (0-300 nM) for 100 seconds followed by a 300 second dissociation time by transferring the biosensors into assay buffer containing wells. The CD3 loaded sensors were then regenerated for the next kinetic measurement. Biosensors were generated by removing bound Fabs or Ab from immobilized CD3 on SA biosensors. Regeneration conditions used consisted of 3 cycles of 5 seconds of dipping the biosensors in Regeneration Buffer (10 mM Glycine HCl pH 1.5) followed by Assay Buffer (10 mM sodium phosphate pH 7.4, 140 mM Sodium Chloride, 0.005% Tween20 with 0.2% BSA).

Binder | Kd | koff | kon
B1 | 24.6 nM | 0.00596 s⁻¹ | 246000 M⁻¹ s⁻¹
B2 | 443 nM | 0.0823 s⁻¹ | 186000 M⁻¹ s⁻¹
B3 | 417 nM | 0.0779 s⁻¹ | 187000 M⁻¹ s⁻¹
B4 | 22.7 nM | 0.0101 s⁻¹ | 451000 M⁻¹ s⁻¹
B5 | 497 nM | 0.213 s⁻¹ | 429000 M⁻¹ s⁻¹
B6 | 498 nM | 0.155 s⁻¹ | 318000 M⁻¹ s⁻¹
B7 | 14.7 nM | 0.00366 s⁻¹ | 252000 M⁻¹ s⁻¹
B8 | 1200 nM | 0.109 s⁻¹ | 90800 M⁻¹ s⁻¹
B9 | 4180 nM | 0.424 s⁻¹ | 265000 M⁻¹ s⁻¹
B10 | 45.2 nM | 0.0144 s⁻¹ | 321000 M⁻¹ s⁻¹
B11 | 162 nM | 0.0408 s⁻¹ | 251000 M⁻¹ s⁻¹
B12 | 353 nM | 0.0963 s⁻¹ | 273000 M⁻¹ s⁻¹
B13 | 375 nM | 0.138 s⁻¹ | 367000 M⁻¹ s⁻¹
B14 | 25.4 nM | 0.00952 s⁻¹ | 381000 M⁻¹ s⁻¹
B15 | 211 nM | 0.0506 s⁻¹ | 241000 M⁻¹ s⁻¹
B16 | 18.9 nM | 0.00482 s⁻¹ | 266000 M⁻¹ s⁻¹
B17 | 19.8 nM | 0.00723 s⁻¹ | 396000 M⁻¹ s⁻¹
B18 | 570 nM | 0.202 s⁻¹ | 359000 M⁻¹ s⁻¹

Binder | Kd | koff | kon
B19 | 99.4 nM | 0.0335 s⁻¹ | 398000 M⁻¹ s⁻¹
B20 | 6120 nM | 0.25 s⁻¹ | 40900 M⁻¹ s⁻¹
B21 | 26.4 nM | 0.0141 s⁻¹ | 609000 M⁻¹ s⁻¹
B22 | 85.8 nM | 0.0246 s⁻¹ | 287000 M⁻¹ s⁻¹
B23 | 1460 nM | 0.848 s⁻¹ | 307000 M⁻¹ s⁻¹
B24 | 305 nM | 0.163 s⁻¹ | 561000 M⁻¹ s⁻¹
B25 | 666 nM | 0.185 s⁻¹ | 277000 M⁻¹ s⁻¹
B26 | 234 nM | 0.219 s⁻¹ | 958000 M⁻¹ s⁻¹
B27 | 761 nM | 0.145 s⁻¹ | 192000 M⁻¹ s⁻¹
B28 | 159 nM | 0.0436 s⁻¹ | 274000 M⁻¹ s⁻¹
B29 | 30.6 nM | 0.0107 s⁻¹ | 351000 M⁻¹ s⁻¹
B30 | 3440 nM | 0.0982 s⁻¹ | 172000 M⁻¹ s⁻¹
B31 | 351 nM | 0.0499 s⁻¹ | 144000 M⁻¹ s⁻¹
B32 | 372 nM | 0.0855 s⁻¹ | 235000 M⁻¹ s⁻¹
B33 | 123 nM | 0.0365 s⁻¹ | 311000 M⁻¹ s⁻¹
B34 | 68.5 nM | 0.0177 s⁻¹ | 260000 M⁻¹ s⁻¹
B35 | 53.9 nM | 0.0199 s⁻¹ | 478000 M⁻¹ s⁻¹
B36 | 9.6 nM | 0.0025 s⁻¹ | 262000 M⁻¹ s⁻¹
